According to paper PMC5016095 (2016):

Tests used:
α-synuclein S129E = α-synuclein S129E (Homo sapiens, UniProt P37840); experiment: fluorescence spectroscopy
α-synuclein (oligomeric) = α-synuclein (oligomeric) (Homo sapiens, UniProt P37840, oligomeric, pseudo-wildtype tryptophan mutant); experiment: fluorescence spectroscopy

B1: TOM20 C-terminal cytosolic fragment (protein)
chain: DRKRRSDPNFKNRLRERRKKQKLAKERAGLSKLPDLKDAEAVQKFFLEEIQLGEELLAQGDYEKGVDHLTNAIAVCGQPQQLLQVLQQTLPPPVFQMLLTKLPTISQRIVSAQSLAEDDVE
A Kd (α-synuclein S129E) of roughly 5 µM and a Kd (α-synuclein (oligomeric)) of roughly 5 µM were found for B1 in this work.
